The results in this text go back to publication PMC6642096 (Nature Communications, 2019).

For this assay, the target named is T1, LgB-NIX (UniProt O60238 1-219).
T1 construct: also called NIX (NanoBiT Large BiT fusion); not shown: Large BiT (LgB), N-terminal, kept
The assay can be described thus: split reporter (BiFC, NanoBiT). The note with it: partners not purified.

T1 sequence (O60238 whole entry, the tested form may be a part): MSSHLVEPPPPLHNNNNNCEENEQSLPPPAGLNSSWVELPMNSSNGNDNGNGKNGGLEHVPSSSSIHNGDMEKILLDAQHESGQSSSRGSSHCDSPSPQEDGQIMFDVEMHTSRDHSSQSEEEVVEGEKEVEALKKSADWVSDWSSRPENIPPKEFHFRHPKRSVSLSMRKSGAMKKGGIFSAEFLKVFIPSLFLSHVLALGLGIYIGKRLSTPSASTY

B1: vIRF-1-SmB (natural protein)
chain: MDPGQRPNPFGAPGAIPKKPCLSQGSPGTSGSGAPCDEPSRSESPGEGPSGTGGSAAAGDITRQAVVAAITEWSRTRQLRISTGASEGKASIKDWIVCQVNSGKFPGVEWEDEERTRFRIPVTPLADPCFEWRRDGELGVVYIRERGNMPVDASFKGTRGRRRMLAALRRTRGLQEIGKGISQDGHHFLVFRVRKPEEEQCVECGVVAGAVHDFNNMARLLQEGFFSPGQCLPGEIVTPVPSCTTAEGQEAVIDWGRLFIRMYYNGEQVHELLTTSQSGCRISSALRRDPAVHYCAVGSPGQVWLPNVPNLACEIAKRELCDTLDACAKGILLTSSCNGIFCVCYHNGPVHFIGNTVPPDSGPLLLPQGKPTRIFNPNTFLVGLANSPLPAPSHVTCPLVKLWLGKPVAVGKLEPHAPSPRDFAARCSNFSDACVVLEIMPKPLWDAMQ
notes: also called vIRF-1-SmB (NanoBiT Small BiT fusion); source: 293T, transiently transfected, in cells; not shown: Small BiT (SmB), C-terminal, kept
As to B1, the “fold luminescence against HT-SmB with LgB-NIX” value was 10 fold.
